The values below come from patent US20030092164A1.

One may read the Kd as a measure of binding affinity in units of concentration.

Assay [1] has as its target Ztnfr12 (human). Description: I^125-labeled ZTNF4 binding to baby hamster kidney cells transfected with Ztnfr12; Scatchard analysis.
The target of assay [2] is TACI receptor. Description: I^125-labeled ZTNF4 binding to baby hamster kidney cells transfected with a TACI expression vector; Scatchard analysis.

For the substance ZTNF4 (ligand), the Kd turned out to be 1 nM in assay [1] and 1.25 nM in assay [2].
